Measured values: patent publication US20130142799A1 (Amgen, published 2013)
Residue numbers refer to the chain shown, from its start.

B1: Ab 536 (THW/LQT mixture) (antibody, V domains shown)
VH: EVQLVQSGGGVVQPGRSLRLSCAASGFTFSSYGMHWVRQAPGKGLEWVSYISSSGSTIYYADSVKGRFTISRDNAKNSLYLQMNSLRAEDTAVYYCARDLLDYDILTGYGYWGQGTLVTVSS
VL: not shown
notes: each antibody in the mixture has two heavy and two light chains; also called clone 536; copies: 2 + 2
B2: Ab 533 (antibody, human IgG1, kappa, V domains shown)
VH: B1 VH
VL: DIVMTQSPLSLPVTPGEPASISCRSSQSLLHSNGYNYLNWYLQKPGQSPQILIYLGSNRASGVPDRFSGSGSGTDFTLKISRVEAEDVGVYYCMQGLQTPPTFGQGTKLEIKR
notes: also called clone 533
B3: Ab 543 (antibody, human IgG1, kappa, V domains shown)
VH: QVQLVQSGAEVKKPGSSVKVSCKASGGTFSSYAISWVRQAPGQGLEWMGRIIPILGIANYAQKFQGRVTITADKSTSTAYMELSSLRSEDTAVYYCARPYYDFWSGPGGMDVWGQGTTVTVSS
VL: not shown
notes: Fully human IgG1 kappa
B4: Ab 537 (antibody, human IgG1, V domains shown)
VH: QVQLVQSGAEVKKPGSSVKVSCKASGGTFSSYAISWVRQAPGQGLEWMGGIIPILGIANYAQKFQGRVTITADKSTSTAYMELSGLGSEDTAVYYCARGSSDAAVAGMWGQGTLVTVSS
VL: QSVLTQPPSVSAAPGQDVTISCSGNNSNIGNNYVSWYQQVPGTAPKLLVYDNHKRPSGISDRFSGSKSDTSATLDITGLQPGDEADYYCGTWDTSLSANWVFGGGTKLTVLR
notes: Fully human IgG1 lambda; also called clone 537
B5: Ab 540 (antibody, human IgG1, lambda, V domains shown)
VH: QVQLVQSGAEVKKPGSSVKVSCKASGGTFSSYAISWVRQAPGQGLEWMGGIIPILGIANYAQKFQGRVTITADKFTSTAYMELSSLGSEDTAVYYCARAVPGTEDAFDIWGQGTMVTVSS
VL: QSVLTQPPSVSAAPGQKVTISCSGSSSNIGANYVSWYQQLPGTAPKLLIYNNNKRPSGIPDRFSGSKSDTSATLGITGLQTGDEADYYCGAWDSSLSASWVFGGGTKLTVLG
notes: Fully human IgG1 lambda
B6: Ab 544 (antibody, human IgG1, lambda, V domains shown)
VH: QVQLVQSGAEVKKPGASVKVSCKASGGTFSSYAISWVRQAPGQGLEWMGGIIPIFGTANYAQKFQGRVTITADESTSTAYMELSSLRSEDTAVYYCARFESGYWGDAFDIWGQGTMVTVSS
VL: SYELTQPPSVSVSPGQTARITCSGDALPKQYAYWYQQKPGQAPVLVIYKDSERPSGIPERFSGSSSGTTVTLTISGVQAEDEADYYCQSADSSHVVFGGGTKLTVLG
notes: also called clone 544
B7: Ab 528 (antibody, human IgG1, lambda, V domains shown)
VH: QVQLVQSGAEVKKPGSSVKVSCKASGGTFSSYAISWVRQAPGQGLEWMGGIIPIFGTANYAQKFQGRVTITADESTSTAYMELSSLRSEDTAVYYCARGVVGDFDWLSFFDYWGQGTLVTVSS
VL: SYELTQPPSVSVSPGQTASITCSGDKLGYTYTSWFQQKPGQSPVLVIFQDFKRPSGIPERFSGSNSGNTATLTISGTQAMDEADYYCQAWDSTTAVVFGTGTKVTVLG
notes: Fully human IgG1 lambda
B8: Ab G1D4 (antibody, human IgG1, lambda, V domains shown)
VH: QVQLVQSGAEVKKPGSSVKVSCKASGGTFSSHAISWVRQAPGQGLEWMGRIIPILGIANYAQKFQGRVTITADESTSTAYMELSSLRSEDTAVYYCATSRLEWLLYLDYWGQGTLVTVSS
VL: NFMLTQPHSVSESPGKTVIIPCTRSSGSIASNYVQWYQKRPGSAPSIVIYEDKQRPSGVPDRFSGSIDSSSNSASLTISGLKTEDEADYYCQSYNSRGVMFGGGTKLTVLG
notes: Fully human IgG1 lambda
B9: Ab 553 (antibody, human IgG1, kappa, V domains shown)
VH: QVQLVQSGAEVKKPGASVKVSCKASGYTFTSYAMHWVRQAPGQRLEWMGWINAGNGNTKYSQKFQGRVTITRDTSASTAYMELSGLRSEDTAVYYCARGVDDYGGNSWAFDIWGQGTMVTVSS
VL: DIVMTQSPLSLPVTPGEPASISCRSSQSLLHSNGYNYLDWYLQKPGQSPQLLIYLGSNRASGVPDRFTGSGSATDFTLRISRVEAEDVGVYYCMQALQTPLTFGGGTKVEIKR
notes: Fully human IgG1 kappa
B10: Ab 526 (antibody, human IgG1, kappa, V domains shown)
VH: EVQLVESGGGVVQPGRSLRLSCAASGFTFSSYGMHWVRQAPGKGLEWVSAISGSGGSTYYADSVKGRFTISRDNAKNSLYLQMNSLRAEDTAVYYCARDLLDYDILTGPYAYWGQGTLVTVSS
VL: not shown
notes: Fully human IgG1 kappa
B11: Ab 531 (antibody, human IgG1, lambda, V domains shown)
VH: EVQLVQSGAEVKKPGSSVKVSCKASGGTFSSYAISWVRQAPGQGLEWMGGIIPILGIANYAQKFQGRVTITADKSTNTAYMELTSLTSDDTAVYYCARDREDTAMVFNYWGQGTLVTVSS
VL: B5 VL with I20V, A31N, N51D, D69G, A91T, S99F
notes: Fully human IgG1 lambda
B12: Ab 555 (antibody, human IgG1, kappa, V domains shown)
VH: QVQLQESGGGVVQPGRSLRLSCAASGFTFSSYAMHWVRQAPGKGLEWVAVISYDGSNKYYADSVKGRFTISRDNSKNTLYLQMNSLRAEDTAVYYCARSASDHYYDSSGYYSDAFDIWGQGTMVTVSS
VL: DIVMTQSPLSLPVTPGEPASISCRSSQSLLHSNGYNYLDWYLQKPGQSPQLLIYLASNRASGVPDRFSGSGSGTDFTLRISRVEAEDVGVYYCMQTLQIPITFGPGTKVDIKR
notes: Fully human IgG1 kappa
B13: Ab 535 (antibody, human IgG1, lambda, V domains shown)
VH: B6 VH with A16S, E74K, R98A, E100S, S101P, G102F, Y103T, W104E, G105T
VL: QSVLTQPPSVSAAPGQKVTISCSGSNSNIGNNFVSWYQQLPGTAPKLLVYDNNKRPSGIPDRFSGSKSGTSATLGITGLQTGDEADYYCGTWDSSLSAAEVVFGGGTKLTVLG
notes: Fully human IgG1 lambda

Molecular target: T1, human angiopoietin-2 (human, UniProt O15123 19-496, limits assumed)
T1 construct: also called hAng-2; huAng-2
T1 sequence (looked up): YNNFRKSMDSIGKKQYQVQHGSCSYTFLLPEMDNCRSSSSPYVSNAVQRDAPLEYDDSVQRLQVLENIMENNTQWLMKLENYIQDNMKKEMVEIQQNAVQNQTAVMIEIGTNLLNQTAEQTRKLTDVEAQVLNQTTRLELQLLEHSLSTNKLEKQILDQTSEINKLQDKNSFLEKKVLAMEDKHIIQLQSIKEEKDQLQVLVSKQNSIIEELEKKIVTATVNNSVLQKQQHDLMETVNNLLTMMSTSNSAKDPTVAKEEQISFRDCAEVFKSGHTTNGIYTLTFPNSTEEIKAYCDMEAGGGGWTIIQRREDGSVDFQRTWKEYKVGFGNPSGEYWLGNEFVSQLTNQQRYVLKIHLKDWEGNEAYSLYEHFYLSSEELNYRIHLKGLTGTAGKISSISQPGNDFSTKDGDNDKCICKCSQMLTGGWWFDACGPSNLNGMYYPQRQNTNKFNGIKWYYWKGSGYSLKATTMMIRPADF
Experiment: Affinity ELISA on plate-bound hAng-2

| Binder | EC50 [nM] |
| --- | --- |
| B1 | 0.005 |

Molecular target: T2, human angiopoietin-1 (human, UniProt Q15389 20-498)
T2 construct: also called hAng-1; Human Ang1
T2 sequence (looked up): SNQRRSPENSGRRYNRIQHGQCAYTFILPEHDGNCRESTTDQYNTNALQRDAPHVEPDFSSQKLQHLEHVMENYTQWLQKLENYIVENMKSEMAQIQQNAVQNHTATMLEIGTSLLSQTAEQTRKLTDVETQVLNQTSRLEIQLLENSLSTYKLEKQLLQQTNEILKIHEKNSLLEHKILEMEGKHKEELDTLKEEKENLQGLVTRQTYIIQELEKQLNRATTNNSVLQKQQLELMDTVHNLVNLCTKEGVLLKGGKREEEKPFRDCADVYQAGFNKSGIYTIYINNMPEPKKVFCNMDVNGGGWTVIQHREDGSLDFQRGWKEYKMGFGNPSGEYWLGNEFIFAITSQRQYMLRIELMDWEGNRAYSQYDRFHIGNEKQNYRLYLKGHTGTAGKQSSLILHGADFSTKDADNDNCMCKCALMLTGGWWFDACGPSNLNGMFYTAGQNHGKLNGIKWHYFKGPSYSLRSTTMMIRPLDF
Experiment: Affinity ELISA on plate-bound hAng-1

| Binder | EC50 [nM] |
| --- | --- |
| B1 | 30 |

Molecular target: T1, human angiopoietin-2
Experiment: Neutralization ELISA: antibody titrated against 1 nM Tie2-Fc on plate-bound hAng-2
Protocol: Microtiter plates to which human Ang-2 polypeptide was bound were prepared as described for the Affinity ELISA. […] Next, about 100 microliters per well of goat anti-mouse-IgG-HRP (Pierce Chemical CO., catalog #31432) was added at a dilution of 1:10,000 in PBS containing about 1 percent BSA. Plates were incubated at room temperature for about 1 hour, after which they were washed five times with PBS containing about 0.1 percent Tween-20. About 100 microliters per well of TMB substrate (described above) was then added and color was allowed to develop. Absorbance was then read in a spectrophotomer at 370 nm.
Seventeen of the antibodies and a negative control IgG1 (referred to as RDB1) were tested using affinity and neutralization ELISA (as described in Example 3 above) as well as the BIAcore neutralization assay to determine their affinity, neutralization, and specificity capabilities.

| Binder | IC50 [nM] |
| --- | --- |
| B1 | 0.08 |
| B2 | 0.3 |
| B3 | 0.51 |
| B4 | 0.56 |
| B5 | 0.7 |
| B6 | 0.97 |
| B7 | 1.37 |
| B8 | 1.39 |
| B9 | 1.47 |
| B10 | 1.83 |
| B11 | 2.15 |
| B12 | 2.21 |
| B13 | 2.81 |

Molecular target: T2, human angiopoietin-1
Experiment: Neutralization ELISA: antibody titrated against 1 nM Tie2-Fc on plate-bound hAng-1

| Binder | IC50 [nM] |
| --- | --- |
| B1 | 115 |
| B6 | 23.3 |
| B8 | 69.5 |
| B10 | 243 |

Molecular target: T1, human angiopoietin-2
Experiment: BIAcore: antibody captured on Protein G, huAng-2 injected
Protocol: (§1) Binding assays were carried out by first attaching about 100 Ru of each candidate anti-Ang-2 antibody to the immobilized Protein G, after which various concentrations (0-100 nM) of huAng-2 or mAng-2 were then injected over the bound antibody surface at a flow rate of about 50 ul/min for about 3 minutes. Antibody binding kinetics including kₐ (association rate constant), kd (dissociation rate constant) and KD (dissociation equilibrium constant) were determined using the BIA evaluation 3.1 computer program (BIAcore, Inc.).

| Binder | Kd [nM] | koff [s⁻¹] | kon [M⁻¹ s⁻¹] |
| --- | --- | --- | --- |
| B1 | 0.12 | 3.8e-05 | 320000 |

Molecular target: T3, murine Ang-2, His-tagged (mouse, UniProt O35608 19-496)
T3 construct: also called mAng-2; mAng-2-His
T3 sequence (looked up): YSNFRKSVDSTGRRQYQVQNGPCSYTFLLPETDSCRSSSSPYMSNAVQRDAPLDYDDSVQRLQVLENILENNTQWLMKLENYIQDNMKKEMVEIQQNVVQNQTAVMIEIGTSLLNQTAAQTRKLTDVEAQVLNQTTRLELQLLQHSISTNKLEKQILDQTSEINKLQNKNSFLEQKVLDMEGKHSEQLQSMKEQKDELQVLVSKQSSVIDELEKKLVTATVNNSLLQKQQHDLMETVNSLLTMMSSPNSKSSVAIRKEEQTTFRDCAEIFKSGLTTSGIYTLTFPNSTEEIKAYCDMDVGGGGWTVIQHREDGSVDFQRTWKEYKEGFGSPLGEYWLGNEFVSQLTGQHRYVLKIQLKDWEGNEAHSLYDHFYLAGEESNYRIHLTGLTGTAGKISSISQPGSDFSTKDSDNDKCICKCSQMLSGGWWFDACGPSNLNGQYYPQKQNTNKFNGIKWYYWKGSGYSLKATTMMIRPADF
Experiment: Neutralization ELISA: antibody titrated against 1 nM Tie2-Fc on plate-bound mAng-2

| Binder | IC50 [nM] |
| --- | --- |
| B1 | 0.05 |
| B2 | 0.08 |
| B3 | 0.24 |
| B4 | 0.62 |
| B5 | 1.53 |
| B6 | 1.82 |
| B7 | 0.73 |
| B8 | 0.6 |
| B9 | 1.41 |
| B10 | 0.27 |
| B11 | 1.67 |
| B12 | 1.76 |
| B13 | 2.45 |

Molecular target: T3, murine Ang-2, His-tagged
Experiment: BIAcore: antibody captured on Protein G, mAng-2 injected
Protocol: as §1

| Binder | Kd [nM] | koff [s⁻¹] | kon [M⁻¹ s⁻¹] |
| --- | --- | --- | --- |
| B1 | 0.15 | 9.5e-05 | 620000 |

Molecular target: T3, murine Ang-2, His-tagged
Experiment: Affinity ELISA on plate-bound mAng-2

| Binder | EC50 [nM] |
| --- | --- |
| B1 | 0.01 |
